The numbers were not newly measured in publication PMC3931689, which cites them from elsewhere.

By pKi is commonly meant the Ki on a negative log10 scale, so that one unit is a factor of ten.

pKi: −log10 of the molar value.

The series addresses Protein phosphatase 1 (Mus musculus) (UniProt P62137).
UniProt P62137, sequence (P62137 2-330): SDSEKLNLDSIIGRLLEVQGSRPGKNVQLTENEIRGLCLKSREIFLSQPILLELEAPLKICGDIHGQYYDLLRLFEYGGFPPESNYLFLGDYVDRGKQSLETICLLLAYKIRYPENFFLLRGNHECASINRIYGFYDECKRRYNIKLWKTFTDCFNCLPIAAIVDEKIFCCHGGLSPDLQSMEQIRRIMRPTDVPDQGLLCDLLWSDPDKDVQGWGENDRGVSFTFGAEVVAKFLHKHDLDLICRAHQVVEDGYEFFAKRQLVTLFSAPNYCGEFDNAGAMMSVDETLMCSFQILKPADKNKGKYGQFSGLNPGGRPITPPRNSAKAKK

For the substance Inhibitor-1 (from UniProt Q9ERT9), the negative logarithm of the Ki (pKi) was 9.00.
